Measurements from patent US20030008291A1 (RIKEN, published 2003).

Key:
UvrA [1] = target: T1, UvrA; test: SPR (BIAcore), His-tagged β domain immobilised on Ni-NTA sensor chip, UvrA injected, with ATP (+ ATP)
T1 construct: UvrA was the analyte in the BIAcore experiment

UvrA [2] = target: T1, UvrA; test: SPR (BIAcore), His-tagged β domain immobilised on Ni-NTA sensor chip, UvrA injected, without ATP (- ATP)

B1: UvrB-β (enzyme)
chain: RNLVVERGKPYPREVLLERLLELGYQRNDIDLSPGRFRAKGEVLEIFPAYETEPIRVELFGDEVERISQVHPVTGERLRELPGFVLFPA
- Kd (UvrA [1]): 400 nM
- koff (UvrA [1]): 0.06 s⁻¹
- kon (UvrA [1]): 150000 M⁻¹ s⁻¹
- Kd (UvrA [2]): 2600 nM
- koff (UvrA [2]): 0.52 s⁻¹
- kon (UvrA [2]): 200000 M⁻¹ s⁻¹
